# According to paper PMC3360202:
# B1: comp3 (dsDNA)
# DNA 1: TAGATGTGATTCGTTAGGTGTGTTTTTATAA
# DNA 2: TTATAAAAACACACCTAACGAATCACATCTA
# B2: APB1 (dsDNA)
# DNA 1: GATCCGGGTCAGTGTACCTACCAACCTTAAACAC
# DNA 2: GATCGTGTTTAAGGTTGGTAGGTACACTGACCCG
# B3: comp1 (dsDNA)
# DNA 1: CTATTACTCGTTAGTTGGATTTTAGTTT
# DNA 2: AAACTAAAATCCAACTAACGAGTAATAG
# B4: FLSbind (dsDNA)
# DNA 1: GAGTTTCTGGTAGGTGCGTCGTACGGCCAG
# DNA 2: CTGGCCGTACGACGCACCTACCAGAAACTC
# B5: comp2 (dsDNA)
# DNA 1: CCAAGTCAAAATCCAACCATTATCTCTTGA
# DNA 2: TCAAGAGATAATGGTTGGATTTTGACTTGG
# Tests used:
# [1] = biological target: T1, P1MYB (N6His-ZmP1MYB) (Zea mays, UniProt P27898 9-116); test: competition
# [2] = biological target: T1, P1MYB (N6His-ZmP1MYB); test: EMSA
# [3] = biological target: T1, P1MYB (N6His-ZmP1MYB); test: EMSA; remark: listed apart in the source
# T1 sequence (P27898 9-116): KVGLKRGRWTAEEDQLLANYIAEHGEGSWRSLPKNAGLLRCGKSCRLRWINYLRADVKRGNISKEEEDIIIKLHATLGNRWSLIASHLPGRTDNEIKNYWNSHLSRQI
binder,measurement,setting,value
B1,binding result,[1],binds
B2,binding result,[2],binds
B3,binding result,[1],binds
B4,binding result,[3],binds
B5,binding result,[1],binds
